These results are taken from article PMC3334968, “Development of a Tetrameric Streptavidin Mutein with Reversible Biotin Binding Capability: Engineering a Mobile Loop as an Exit Door for Biotin” (PLoS ONE, 2012).

This data set deals with the molecule itself. Kind of data set: SDS-PAGE of unboiled samples; oligomeric state in SDS-PAGE, samples not boiled, without biotin, with or without 0.7 M β-mercaptoethanol.

B1: 8-aa-loop-H127C mutein (streptavidin) (natural protein, UniProt P22629 25-183, looked up)
chain: DPSKDSKAQVSAAEAGITGTWYNQLGSTFIVTAGADGALTGTYESAVGNAESRYVLTGRYDSAPATDGSGTALGWTVAWKNNYRNAHSATTWSGQYVGGAEARINTQWLLTSGDSSNGSDGSTLVGCDTFTKVKPSAASIDAAKKAGVNNGNPLDAVQQ
modifications: disulfide bond between the Cys-127 residues of adjacent subunits
notes: streptavidin; loop7-8 (residues 114-121) replaced and H127C added; SDS-PAGE was done without biotin; also called MH127C; 8-aa-loop-H127 mutein; source: B. subtilis WB800, secreted, purified from culture supernatant (biotin-agarose)
Turning to B1, the stoichiometry N (commonly the number of molecules, sites or subunits per partner or assembly) amounted to 4.
